Data taken from patent US20100021987.

Experiments:
[1] = target: 6xHis-hSUMO-3-X-eGFP, X = H
[2] = target: 6xHis-hSUMO-3-X-eGFP, X = V
[3] = target: 6xHis-hSUMO-3-X-eGFP, X = D
[4] = target: 6xHis-hSUMO-3-X-eGFP, X = A
[5] = target: 6xHis-hSUMO-3-X-eGFP, X = T
[6] = target: 6xHis-hSUMO-3-X-eGFP, X = G
[7] = target: 6xHis-hSUMO-3-X-eGFP, X = Y
[8] = target: 6xHis-hSUMO-3-X-eGFP, X = Q
[9] = target: 6xHis-hSUMO-3-X-eGFP, X = K
[10] = target: 6xHis-hSUMO-3-X-eGFP, X = I
[11] = target: 6xHis-hSUMO-3-X-eGFP, X = E
[12] = target: 6xHis-hSUMO-3-X-eGFP, X = S
[13] = target: 6xHis-hSUMO-3-X-eGFP, X = L
[14] = target: 6xHis-hSUMO-3-X-eGFP, X = R
[15] = target: 6xHis-hSUMO-3-X-eGFP, X = N
[16] = target: 6xHis-hSUMO-3-X-eGFP, X = P
[17] = target: 6xHis-hSUMO-3-X-eGFP, X = C
[18] = target: 6xHis-hSUMO-3-X-eGFP, X = W
[19] = target: 6xHis-hSUMO-3-X-eGFP, X = F

B1: Saccharomyces cerevisiae Ulp1 SUMO protease catalytic domain (protein)
chain: MGLVPELNEKDDDQVQKALASRENTQLMNRDNIEITVRDFKTLAPRRWLNDTIIEFFMKYIEKSTPNTVAFNSFFYTNLSERGYQGVRRWMKRKKTQIDKLDKIFTPINLNQSHWALGIIDLKKKTIGYVDSLSNGPNAMSFAILTDLQKYVMEESKHTIGEDFDLIHLDCPQQPNGYDCGIYVCMNTLYGSADAPLDFDYKDAIRMRRFIAHLILTDALKLEHHHHHH
Kcat (6xHis-hSUMO-3-eGFP): Kcat = 0.027 | Km (6xHis-hSUMO-3-eGFP): Km = 15.8 mM | Percent cleavage, enzyme:substrate 1:100 (6xHis-hSUMO-3-eGFP): 98.3% | Percent cleavage, enzyme:substrate 1:1000 (6xHis-hSUMO-3-eGFP): 18.4% | activity level (grade) (6xHis-hSUMO-3-eGFP): + | cleavage, time course, SDS-PAGE (6xHis-hSUMO-3-eGFP): yUlp1 was able to cleave apparently less than half of the substrate in 4 hrs. | activity level (grade) (6xHis-AtSUMO2-eGFP): ++ | cleavage, 2-fold enzyme dilution series, SDS-PAGE (6xHis-AtSUMO2-eGFP): a slight advantage in the cleavage of AtSUMO2-eGFP | cleavage, time course, SDS-PAGE (6xHis-AtSUMO2-eGFP): cleaving not only T-SUMO but also AtSUMO1 and AtSUMO2 significantly better than did hSENP2 | Percent cleavage, enzyme:substrate 1:100 [1]: 90.8% | Percent cleavage, enzyme:substrate 1:1000 [1]: 25.5% | Percent cleavage, enzyme:substrate 1:100 [2]: 20.2% | Percent cleavage, enzyme:substrate 1:1000 [2]: 4% | Percent cleavage, enzyme:substrate 1:100 [3]: 92.3% | Percent cleavage, enzyme:substrate 1:1000 [3]: 3.3% | activity level (grade) (6xHis-AtSUMO1-eGFP): ++ | cleavage, 2-fold enzyme dilution series, SDS-PAGE (6xHis-AtSUMO1-eGFP): Both hSENP2 and yUlp1 cleaved the AtSUMO1 fusion similarly | cleavage, time course, SDS-PAGE (6xHis-AtSUMO1-eGFP): cleaving not only T-SUMO but also AtSUMO1 and AtSUMO2 significantly better than did hSENP2 | Percent cleavage, enzyme:substrate 1:100 [4]: 96.3% | Percent cleavage, enzyme:substrate 1:1000 [4]: 27.1% | Percent cleavage, enzyme:substrate 1:100 [5]: 95.8% | Percent cleavage, enzyme:substrate 1:1000 [5]: 14.3% | Percent cleavage, enzyme:substrate 1:100 [6]: 96.5% | Percent cleavage, enzyme:substrate 1:1000 [6]: 27% | Percent cleavage, enzyme:substrate 1:100 [7]: 96.9% | Percent cleavage, enzyme:substrate 1:1000 [7]: 16.9% | Kcat (6xHis-ySmt3-eGFP): Kcat = 0.40 | Km (6xHis-ySmt3-eGFP): Km = 4.5 mM | activity level (grade) (6xHis-ySmt3-eGFP): ++++ | cleavage, time course, SDS-PAGE (6xHis-ySmt3-eGFP): both enzymes cleaving hSUMO-1-eGFP poorly and ySmt3-eGFP well | activity level (grade) (6xHis-T-SUMO-eGFP): ++ | cleavage, 2-fold enzyme dilution series, SDS-PAGE (6xHis-T-SUMO-eGFP): yUlp1 had a distinct advantage in the cleavage of T-SUMO-eGFP | cleavage, time course, SDS-PAGE (6xHis-T-SUMO-eGFP): cleaving not only T-SUMO but also AtSUMO1 and AtSUMO2 significantly better than did hSENP2 | Percent cleavage, enzyme:substrate 1:100 [8]: 65.5% | Percent cleavage, enzyme:substrate 1:1000 [8]: 3.7% | Percent cleavage, enzyme:substrate 1:100 [9]: 22.4% | Percent cleavage, enzyme:substrate 1:1000 [9]: 0% | Percent cleavage, enzyme:substrate 1:100 [10]: 1.9% | Percent cleavage, enzyme:substrate 1:1000 [10]: 0% | Percent cleavage, enzyme:substrate 1:100 [11]: 80.1% | Percent cleavage, enzyme:substrate 1:1000 [11]: 11.3% | Percent cleavage, enzyme:substrate 1:100 [12]: 98.2% | Percent cleavage, enzyme:substrate 1:1000 [12]: 16.7% | Percent cleavage, enzyme:substrate 1:100 [13]: 4.4% | Percent cleavage, enzyme:substrate 1:1000 [13]: 0% | Percent cleavage, enzyme:substrate 1:100 [14]: 96.6% | Percent cleavage, enzyme:substrate 1:1000 [14]: 17.2% | Percent cleavage, enzyme:substrate 1:100 [15]: 97.9% | Percent cleavage, enzyme:substrate 1:1000 [15]: 16.9% | Percent cleavage, enzyme:substrate 1:100 [16]: 0% | Percent cleavage, enzyme:substrate 1:1000 [16]: 0% | Percent cleavage, enzyme:substrate 1:100 [17]: 98.4% | Percent cleavage, enzyme:substrate 1:1000 [17]: 25.3% | Percent cleavage, enzyme:substrate 1:100 [18]: 89.7% | Percent cleavage, enzyme:substrate 1:1000 [18]: 16.8% | Percent cleavage, enzyme:substrate 1:100 [19]: 95.4% | Percent cleavage, enzyme:substrate 1:1000 [19]: 27% | activity level (grade) (6xHis-hSUMO-1-eGFP): + | cleavage, time course, SDS-PAGE (6xHis-hSUMO-1-eGFP): both enzymes cleaving hSUMO-1-eGFP poorly

B2: human SENP1 (hSENP1) SUMO protease catalytic domain (protein)
chain: MASFPEITEEMEKEIKNVFRNGNQDEVLSEAFRLTITRKDIQTLNHLNWLNDEIINFYMNMLMERSKEKGLPSVHAFNTFFFTKLKTAGYQAVKRWTKKVDVFSVDILLVPIHLGVHWCLAVVDFRKKNITYYDSMGGINNEACRILLQYLKQESIDKKRKEFDTNGWQLFSKKSQIPQQMNGSDCGMFACKYADCITKDRPINFTQQHMPYFRKRMVWEILHRKLLEHHHHHH
activity level (grade) (6xHis-hSUMO-3-eGFP): + | cleavage, single enzyme concentration, SDS-PAGE (6xHis-hSUMO-3-eGFP): cleaved ySmt3 the best, followed by hSUMO-3 | activity level (grade) (6xHis-AtSUMO2-eGFP): +/- | cleavage, single enzyme concentration, SDS-PAGE (6xHis-AtSUMO2-eGFP): It also cleaved the other 4 fusions, but to a much lesser extent | activity level (grade) (6xHis-AtSUMO1-eGFP): +/- | cleavage, single enzyme concentration, SDS-PAGE (6xHis-AtSUMO1-eGFP): It also cleaved the other 4 fusions, but to a much lesser extent | activity level (grade) (6xHis-ySmt3-eGFP): ++ | cleavage, single enzyme concentration, SDS-PAGE (6xHis-ySmt3-eGFP): hSENP1, which cleaved ySmt3 the best | activity level (grade) (6xHis-T-SUMO-eGFP): +/- | cleavage, single enzyme concentration, SDS-PAGE (6xHis-T-SUMO-eGFP): It also cleaved the other 4 fusions, but to a much lesser extent | activity level (grade) (6xHis-hSUMO-1-eGFP): +/- | cleavage, single enzyme concentration, SDS-PAGE (6xHis-hSUMO-1-eGFP): It also cleaved the other 4 fusions, but to a much lesser extent

B3: human SENP6 (hSENP6) SUMO protease catalytic domain (protein)
chain: MGENHTIFIGPVEKLIVYPPPPAKGGISVTNEDLHCLNEGEFLNDVIIDFYLKYLVLEKLKKEDADRIHIFSSFFYKRLNQRERRNHETTNLSIQQKRHGRVKTWTRHVDIFEKDFIFVPLNEAAHWFLAVVCFPGLEKPKYEPNPHYHENAVIQKCSTVEDSCISSSASEMESCSQNSSAKPVIKKMLNKKHCIAVIDSNPGQEESDPRYKRNICSVKYSVKKINHTASENEEFNKGESTSQKVADRTKSENGLQNESLSSTHHTDGLSKIRLNYSDESPEAGKMLEDELVDFSEDQDNQDDSSDDGFLADDNCSSEIGQWHLKPTICKQPCILLMDSLRGPSRSNVVKILREYLEVEWEVKKGSKRSFSKDVMKGSNPKVPQQNNFSDCGVYVLQYVESFFENPILSFELPMNLANWFPPPRMRTKREEIRNIILKLQEDQSKEKRKHKDTYSTEAPLGEGTEQYVNSISDLEHHHHHH
activity level (grade) (6xHis-hSUMO-3-eGFP): +/- | cleavage, single enzyme concentration, SDS-PAGE (6xHis-hSUMO-3-eGFP): demonstrated partial cleavage of hSUMO-3-eGFP | activity level (grade) (6xHis-AtSUMO2-eGFP): - | cleavage, single enzyme concentration, SDS-PAGE (6xHis-AtSUMO2-eGFP): did not digest the others at the incubation time and enzyme concentration used | activity level (grade) (6xHis-AtSUMO1-eGFP): - | cleavage, single enzyme concentration, SDS-PAGE (6xHis-AtSUMO1-eGFP): did not digest the others at the incubation time and enzyme concentration used | activity level (grade) (6xHis-ySmt3-eGFP): - | cleavage, single enzyme concentration, SDS-PAGE (6xHis-ySmt3-eGFP): did not digest the others at the incubation time and enzyme concentration used | activity level (grade) (6xHis-T-SUMO-eGFP): - | cleavage, single enzyme concentration, SDS-PAGE (6xHis-T-SUMO-eGFP): did not digest the others at the incubation time and enzyme concentration used | activity level (grade) (6xHis-hSUMO-1-eGFP): - | cleavage, single enzyme concentration, SDS-PAGE (6xHis-hSUMO-1-eGFP): did not digest the others at the incubation time and enzyme concentration used

B4: Arabidopsis thalania ULP1c (AtULP1c) SUMO protease catalytic domain (protein)
chain: MVVEEACELPEGLPEDIYYPSSDQSDGRDLVQVSLKDLKCLSPGEYLTSPVINFYIRYVQHHVFSADKTAANCHFFNTFFYKKLTEAVSYKGNDRDAYFVKFRRWWKGFDLFCKSYIFIPIHEDLHWSLVIICIPDKEDESGLTIIHLDSLGLHPRNLIFNNVKRFLREEWNYLNQDAPLDLPISAKVWRDLPNMINEAEVQVPQQKNDFDCGLFLLFFIRRFIEEAPQRLTLQDLKMIHKKWFKPEEASALRIKIWNILVDLFRKGNQTDLEHHHHHH
activity level (grade) (6xHis-hSUMO-3-eGFP): - | cleavage, single enzyme concentration, SDS-PAGE (6xHis-hSUMO-3-eGFP): AtULP1c did not show activity against any of the SUMO fusions | activity level (grade) (6xHis-AtSUMO2-eGFP): - | cleavage, single enzyme concentration, SDS-PAGE (6xHis-AtSUMO2-eGFP): AtULP1c did not show activity against any of the SUMO fusions | activity level (grade) (6xHis-AtSUMO1-eGFP): - | cleavage, single enzyme concentration, SDS-PAGE (6xHis-AtSUMO1-eGFP): AtULP1c did not show activity against any of the SUMO fusions | activity level (grade) (6xHis-ySmt3-eGFP): - | cleavage, single enzyme concentration, SDS-PAGE (6xHis-ySmt3-eGFP): AtULP1c did not show activity against any of the SUMO fusions | activity level (grade) (6xHis-T-SUMO-eGFP): - | cleavage, single enzyme concentration, SDS-PAGE (6xHis-T-SUMO-eGFP): AtULP1c did not show activity against any of the SUMO fusions | activity level (grade) (6xHis-hSUMO-1-eGFP): - | cleavage, single enzyme concentration, SDS-PAGE (6xHis-hSUMO-1-eGFP): AtULP1c did not show activity against any of the SUMO fusions
